# Results as given in patent publication US20200024330A1.
# Experiments:
# Test in all cases: cell-based or functional assay
# [1] = molecular target: HIV-1 MGRM-F1-010 Env (pseudovirus) (HIV-1)
# [2] = molecular target: HIV-1 MGRM-A-002 envelope glycoprotein (Env) (HIV-1)
# [3] = molecular target: HIV-1 MGRM-F1-015 Env (pseudovirus) (HIV-1)
# [4] = molecular target: HIV-1 92UG024 envelope protein (Env) on pseudovirus (HIV-1)
# [5] = molecular target: HIV-1 98CN009 envelope glycoprotein (Env) on pseudovirus (HIV-1)
# [6] = molecular target: HIV-1 Env of isolate MGRM-D-020 (clade D) (HIV-1)
# [7] = molecular target: HIV-1 MGRM-F1-018 Env (pseudovirus) (HIV-1)
# [8] = molecular target: HIV-1 Env of isolate MGRM-AE-001 (HIV-1)
# [9] = molecular target: HIV-1 MGRM-F1-008 Env (pseudovirus) (HIV-1)
# [10] = molecular target: HIV-1 Env of isolate MGRM-D-019 (clade D) (HIV-1)
# [11] = molecular target: HIV-1 93UG077 envelope glycoprotein (Env) on pseudovirus (HIV-1)
# [12] = molecular target: HIV-1 93IN905 Env (HIV-1)
# [13] = molecular target: HIV-1 MGRM-A-004 envelope glycoprotein (Env) (HIV-1)
# [14] = molecular target: HIV-1 Env of isolate MGRM-G-025 (subtype G) (HIV-1)
# [15] = molecular target: HIV-1 Env of isolate MG RM-D-001 (subtype D) (HIV-1)
# [16] = molecular target: HIV-1 Env of isolate MGRM-C-006 (pseudovirus) (HIV-1 isolate MGRM-C-006, subtype C)
# [17] = molecular target: HIV-1 MGRM-Chronic-B-012 Env (pseudovirus) (HIV-1)
# [18] = molecular target: HIV-1 NL43 Env (pseudovirus) (HIV-1)
# [19] = molecular target: HIV-1 JR-CSF Env E466A (HIV-1 (isolate JR-CSF)) (UniProt P20871)
# [20] = molecular target: HIV-1 Env of isolate 92UG114 (subtype D) (HIV-1)
# [21] = molecular target: HIV-1 TRJ04551.58 Env (pseudovirus) (HIV-1)
# [22] = molecular target: HIV-1 VLGCB3 Env (pseudovirus) (HIV-1)
# [23] = molecular target: HIV-1 Env of isolate MGRM-F1-004 (subtype F) (HIV-1)
# [24] = molecular target: HIV-1 Env of isolate 92UG046 (subtype D) (HIV-1)
# [25] = molecular target: HIV-1 93TH305 Env (pseudovirus) (HIV-1)
# [26] = molecular target: HIV-1 JR-CSF Env L179A (HIV-1 (isolate JR-CSF)) (UniProt P20871)
# [27] = molecular target: HIV-1 Env of isolate MGRM-C-028 (pseudovirus) (HIV-1 isolate MGRM-C-028, subtype C)
# [28] = molecular target: HIV-1 Env of isolate 92UG037 (HIV-1)
# [29] = molecular target: HIV-1 Env of isolate MGRM-D-013 (HIV-1)
# [30] = molecular target: HIV-1 Env of isolate JRCSF (HIV-1) (UniProt P20871)
# [31] = molecular target: HIV-1 Env of isolate 97ZA012 (HIV-1)
# [32] = molecular target: HIV-1 Env of isolate MGRM-D-012 (HIV-1)
# [33] = molecular target: HIV-1 Env of isolate MGRM-D-021 (HIV-1)
# [34] = molecular target: HIV-1 Env of isolate MGRM-Chronic-B-002 (HIV-1)
# Chain of PGT-141 (4964_G22; 4993_K13) (antibody) (VH): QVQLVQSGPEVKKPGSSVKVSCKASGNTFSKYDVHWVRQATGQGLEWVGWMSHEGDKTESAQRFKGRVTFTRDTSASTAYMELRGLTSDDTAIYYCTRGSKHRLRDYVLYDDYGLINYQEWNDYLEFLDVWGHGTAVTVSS
# Chain of PGT-141 (4964_G22; 4993_K13) (antibody) (VL): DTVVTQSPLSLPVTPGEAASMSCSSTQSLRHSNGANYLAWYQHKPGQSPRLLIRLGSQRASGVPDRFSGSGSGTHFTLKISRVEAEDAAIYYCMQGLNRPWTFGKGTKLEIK
# Chain of PGT-144 (4970_K22) (antibody) (VH): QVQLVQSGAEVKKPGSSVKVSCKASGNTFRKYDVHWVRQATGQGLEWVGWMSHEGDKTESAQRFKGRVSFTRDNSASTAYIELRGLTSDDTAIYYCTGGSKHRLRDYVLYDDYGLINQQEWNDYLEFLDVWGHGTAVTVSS
# Chain of PGT-144 (4970_K22) (antibody) (VL): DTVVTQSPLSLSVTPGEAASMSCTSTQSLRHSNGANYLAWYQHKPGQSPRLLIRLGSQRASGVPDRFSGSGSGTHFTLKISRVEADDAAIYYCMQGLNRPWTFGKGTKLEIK
# Chain of PGT-143 (4980_N08) (antibody) (VH): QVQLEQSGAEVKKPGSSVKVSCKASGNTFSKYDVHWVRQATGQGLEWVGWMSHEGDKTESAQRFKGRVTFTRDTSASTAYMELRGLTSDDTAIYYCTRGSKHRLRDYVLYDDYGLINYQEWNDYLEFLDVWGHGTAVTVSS
# Chain of PGT-143 (4980_N08) (antibody) (VL): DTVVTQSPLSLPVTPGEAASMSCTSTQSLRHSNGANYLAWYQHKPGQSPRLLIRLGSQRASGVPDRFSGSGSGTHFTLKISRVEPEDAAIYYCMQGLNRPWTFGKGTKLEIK
substance,measurement,setting,value
4E10 (antibody),"IC50 (µg/ml), pseudovirus neutralization",[1],3.69 µg/mL
same,"IC50 (µg/ml), pseudovirus neutralization",[2],6.45 µg/mL
same,"IC50 (µg/ml), pseudovirus neutralization",[3],0.53 µg/mL
same,neutralization IC50,[4],1.32 µg/mL
same,"IC50 (µg/ml), pseudovirus neutralization",[5],2.46 µg/mL
same,"IC50 (µg/ml), pseudovirus neutralization",[6],> 50 µg/mL
same,"IC50 (µg/ml), pseudovirus neutralization",[7],3.6 µg/mL
same,"IC50 (µg/ml), pseudovirus neutralization",[8],0.85 µg/mL
same,"IC50 (µg/ml), pseudovirus neutralization",[9],2.75 µg/mL
same,"IC50 (µg/ml), pseudovirus neutralization",[10],0.04 µg/mL
same,IC90 (pseudovirus neutralization),[11],> 50 µg/mL
same,IC50,[12],1.26 µg/mL
same,"IC50 (µg/ml), pseudovirus neutralization",[13],3.14 µg/mL
PGT-144 (4970_K22) (antibody),neutralization IC50,[14],> 50 µg/mL
PGT-143 (4980_N08) (antibody),neutralization IC50,[14],> 50 µg/mL
2F5 (antibody),"IC50 (µg/ml), pseudovirus neutralization",[1],14.6 µg/mL
same,"IC50 (µg/ml), pseudovirus neutralization",[2],> 50 µg/mL
same,"IC50 (µg/ml), pseudovirus neutralization",[3],0.1 µg/mL
same,neutralization IC50,[4],1.27 µg/mL
same,"IC50 (µg/ml), pseudovirus neutralization",[5],> 50 µg/mL
same,"IC50 (µg/ml), pseudovirus neutralization",[6],> 50 µg/mL
same,"IC50 (µg/ml), pseudovirus neutralization",[7],3.91 µg/mL
same,"IC50 (µg/ml), pseudovirus neutralization",[8],0.29 µg/mL
same,"IC50 (µg/ml), pseudovirus neutralization",[9],1.61 µg/mL
same,"IC50 (µg/ml), pseudovirus neutralization",[10],0.14 µg/mL
same,IC90 (pseudovirus neutralization),[11],33.4 µg/mL
same,IC50,[12],> 50 µg/mL
same,"IC50 (µg/ml), pseudovirus neutralization",[13],7.49 µg/mL
5123_A06 (PGT-125) (antibody),"IC50 (µg/mL), pseudovirus neutralization",[15],2.84 µg/mL
same,IC50 (µg/mL) neutralization,[16],0.015 µg/mL
same,"IC50, pseudovirus neutralization",[17],0.036 µg/mL
same,"IC50, pseudovirus neutralization",[18],> 50 µg/mL
same,Fold IC50 increase relative to wild-type,[19],1.6 fold
same,"IC50 (µg/mL), pseudovirus neutralization",[20],0.349 µg/mL
same,"IC50, pseudovirus neutralization",[21],0.019 µg/mL
same,"IC50, pseudovirus neutralization",[22],0.015 µg/mL
same,"IC50 (µg/mL), pseudovirus neutralization",[23],> 50 µg/mL
same,"IC50 (µg/mL), pseudovirus neutralization",[24],> 50 µg/mL
same,"IC50 (ug/ml), neutralizing activity",[11],0.0262 µg/mL
same,neutralization IC50,[11],0.0262 µg/mL
same,neutralization IC80,[11],0.0926 µg/mL
same,neutralization IC90,[11],0.206 µg/mL
same,neutralization IC95,[11],0.487 µg/mL
same,"IC50, pseudovirus neutralization",[25],0.008 µg/mL
same,Fold IC50 increase relative to wild-type,[26],1.3 fold
same,IC50 (µg/mL) neutralization,[27],14 µg/mL
2G12 (antibody),"IC50 (µg/ml), pseudovirus neutralization",[2],> 50 µg/mL
same,"IC50 (µg/ml), pseudovirus neutralization",[3],> 50 µg/mL
same,neutralization IC50,[4],0.59 µg/mL
same,"IC50 (µg/ml), pseudovirus neutralization",[5],> 50 µg/mL
same,"IC50 (µg/ml), pseudovirus neutralization",[6],> 50 µg/mL
same,"IC50 (µg/ml), pseudovirus neutralization",[7],> 50 µg/mL
same,"IC50 (µg/ml), pseudovirus neutralization",[8],> 50 µg/mL
same,"IC50 (µg/ml), pseudovirus neutralization",[9],> 50 µg/mL
same,"IC50 (µg/ml), pseudovirus neutralization",[10],> 50 µg/mL
same,IC90 (pseudovirus neutralization),[11],> 50 µg/mL
same,IC50,[12],> 50 µg/mL
same,"IC50 (µg/ml), pseudovirus neutralization",[13],> 50 µg/mL
PGT-122 (antibody),"IC50 (µg/mL), pseudovirus neutralization",[28],0.068 µg/mL
same,"IC50 (µg/mL), pseudovirus neutralization",[8],> 50 µg/mL
VRC01 (antibody),"IC50, pseudovirus neutralization",[29],0.087 µg/mL
same,neutralization IC50,[30],0.164 µg/mL
same,neutralization IC50,[31],0.088 µg/mL
same,"IC50, pseudovirus neutralization",[32],0.216 µg/mL
same,"IC50, pseudovirus neutralization",[33],33.4 µg/mL
same,IC50,[34],0.117 µg/mL
same,neutralization IC50,[14],0.292 µg/mL
5141_B17 (PGT-126) (antibody),"IC50 (µg/mL), pseudovirus neutralization",[15],0.084 µg/mL
same,IC50 (µg/mL) neutralization,[16],0.014 µg/mL
same,"IC50, pseudovirus neutralization",[17],0.027 µg/mL
same,IC50,[18],> 10 µg/mL
same,"IC50, pseudovirus neutralization",[18],> 50 µg/mL
same,IC80,[18],> 10 µg/mL
same,IC90,[18],> 10 µg/mL
same,IC95,[18],> 10 µg/mL
same,Fold IC50 increase relative to wild-type,[19],1.4 fold
same,"IC50 (µg/mL), pseudovirus neutralization",[20],0.038 µg/mL
same,"IC50, pseudovirus neutralization",[21],0.025 µg/mL
same,"IC50, pseudovirus neutralization",[22],0.007 µg/mL
same,"IC50 (µg/mL), pseudovirus neutralization",[23],0.063 µg/mL
same,"IC50 (µg/mL), pseudovirus neutralization",[24],> 50 µg/mL
same,"IC50 (ug/ml), neutralizing activity",[11],0.0256 µg/mL
same,"IC50, pseudovirus neutralization",[25],0.013 µg/mL
same,Fold IC50 increase relative to wild-type,[26],2.6 fold
same,IC50 (µg/mL) neutralization,[27],0.196 µg/mL
PGT-141 (4964_G22; 4993_K13) (antibody),neutralization IC50,[14],> 50 µg/mL
